In the test the target is human CD3 (human) (UniProt P07766). The experiment in a line: flow cytometry, serially diluted antibody on Jurkat cells, PE goat anti-mouse IgG. (In flow cytometry, cells or beads pass a laser one at a time.)
human CD3 (human), sequence (P07766 23-207): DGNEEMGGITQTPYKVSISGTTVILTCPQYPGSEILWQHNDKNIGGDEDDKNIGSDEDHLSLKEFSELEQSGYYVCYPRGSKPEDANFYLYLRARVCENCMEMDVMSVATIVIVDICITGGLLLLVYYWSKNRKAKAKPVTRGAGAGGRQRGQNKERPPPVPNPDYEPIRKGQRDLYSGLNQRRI

Substance “OKT3 antibody (mouse anti-human CD3, recombinant, made in 293T cells from pME-wtOKT3 HC and pME-wtOKT3 LC)” returned an antibody concentration giving comparable binding of 0.4 ng/mL.
